This note sets out measurements from patent US20090111104A1, “Method for Monitoring Hydrolytic Activity” (Fluorotechnics Pty Limited, priority 2005, published 2009).

Common to all, as to assay type: biochemical, bovine
Assay [1] deals with T1, BSA (Bos taurus, UniProt P02769).
T1 construct: purchased Sigma-Aldrich A3059
The assay can be described thus: Tryptic digestion of BSA followed with SYPROorange. To be noted: SYPROorange reporter dye. Here is the method: • As per Example 2 above. • SYPROorange (24 mM in DMSO, Molecular Probes) diluted to 100-fold in 50 mM bicine
As per Example 2 except the Fluorostar plate reader was set to 480 nm excitation and 600 (±10 nm) bandpass emission filter.

For assay [2], the target named is T1, BSA. The assay can be described thus: Real-time monitoring of trypsin digestion of BSA using epicocconone (FluoStar assay). Particulars: epicocconone reporter dye, bicine pH 8.4, 37° C., trypsin 1:40, reduced and alkylated BSA. The method, then:
A.3.1 Preparation of BSA for digestion • 1 Trypsin digestion was carried out in bicine buffer (ph 8.4). • 2 BSA was prepared in 10 mg/mL in 50 mM bicine buffer. • 3 One hundred microliter of the BSA sample was used for trypsin digestion.
A.3.2 Reduction and Alkylation • 1 The 100 μL of BSA sample was reduced by adding 5 μL of DTT stock for 10 min at 80° C. • 2 The sample was alkylated by adding 4 μL of the iodoacetamide stock at room temperature for 45 min-1 hr. • 3 The remaining iodoacetamide of the sample was neutralized by adding 20 μL of the DTT at room temp for 45 min-1 hr.
A.3.3 Real-Time Monitoring of Trypsin Digestion Using Epicocconone (FluoStar Assay) • 1 The reduced and denatured BSA sample from 3.2 above was diluted 10-fold in 50 mM bicine buffer (25 μL+225 μL bicine buffer). BSA molar concentration was calculated to be approx. 4 μM. • 2 One hundred microliter of the sample (step 1) was prepared in duplicates and added to a microtiter plate. […] At this point in time, it required approximately 10 min to get appropriate FluoStar setting conditions. • 4 Trypsin (Sigma-Aldrich T6567), reconstituted in 1 mM HCl, was added at a ratio of 1:40. • 5 Fluorescence development was monitored in real time every 2 minutes up to 6 hours using FluoStar (Ex/Em=540/630±12). […]

Assay [3] deals with T1, BSA. The assay can be described thus: SDS-PAGE validation of BSA proteolysis in the presence of different fluorophores (Example 7). To be noted: after 120 minutes. The source says:
The normalised data were used for Prism analysis for obtaining the rate constants. In each case, the protein with fluorophore (open squares) is fitted to a single phase exponential decay (Y=span*exp(−kX)+plateau) and the value for k used as the fixed value for k1 in a two phase exponential decay (Y=span1*exp(−k1X)+span2*exp(−k2X)+plateau) for the protein plus papain (open circles). Through this method it was possible to measure the rate constants for hydrolysis and predict the time point for complete hydrolysis. […] It can be seen from this figure that the bands associated with the protein have disappeared after 120 minutes and that only a faint band for residual papain or trypsin can be seen. In some cases there are also some larger peptide fragments remaining after digestion that are resistant to further hydrolysis.

For assay [4], the target named is T1, BSA. In words: Sub-sampled BSA tryptic digest visualised by SDS-PAGE (Deep Purple stain). Here is the method: A.3.4 Visualization of Trypsin Digests in SDS-PAGE • 1 The reduced and denatured BSA sample from 3.2 above was diluted 10-fold in 50 mM bicine buffer (25 μL+225 μL bicine buffer). BSA molar concentration was calculated to be approx. 4 μM. • 2 One hundred microliter of the sample (step 1) was added to a 1.5 mL microtube. Controls included a bicine-based digestion buffer and an undigested BSA sample (no trypsin). • 3 Epicocconone stock solution was diluted 100-fold in 50 mM bicine. One hundred microliter of diluted epicocconone solution was added to each corresponding well. The final concentration was 12 μM. […] At each sampling point, 15 μL of the samples were taken out, immediately mixed with 15 μL of a protein gel loading buffer (2×), denatured for 5 min at 85° C., and stored at −80° C. • 6 The sub-samples collected as described above were run by SDS-PAGE (Nupage, 12% BT gel), and gels were stained with Deep Purple for visualization. • 7 The Deep Purple-stained gels were imaged by Typhoon scanner (Ex:Em=532:560 LP; 440 PMT). • 8 All the gel lanes showing digested (FIG. 12A) and undigested (FIG. 12B) protein samples were equally gated, and the fluorescent intensity was measured by ImageQuant (v 5.2) software.
The results from the subsampled reaction was similarly analysed but without the term associated with degradation of the signal with time as this is not relevant in gels. […]

T1 sequence (P02769 25-607): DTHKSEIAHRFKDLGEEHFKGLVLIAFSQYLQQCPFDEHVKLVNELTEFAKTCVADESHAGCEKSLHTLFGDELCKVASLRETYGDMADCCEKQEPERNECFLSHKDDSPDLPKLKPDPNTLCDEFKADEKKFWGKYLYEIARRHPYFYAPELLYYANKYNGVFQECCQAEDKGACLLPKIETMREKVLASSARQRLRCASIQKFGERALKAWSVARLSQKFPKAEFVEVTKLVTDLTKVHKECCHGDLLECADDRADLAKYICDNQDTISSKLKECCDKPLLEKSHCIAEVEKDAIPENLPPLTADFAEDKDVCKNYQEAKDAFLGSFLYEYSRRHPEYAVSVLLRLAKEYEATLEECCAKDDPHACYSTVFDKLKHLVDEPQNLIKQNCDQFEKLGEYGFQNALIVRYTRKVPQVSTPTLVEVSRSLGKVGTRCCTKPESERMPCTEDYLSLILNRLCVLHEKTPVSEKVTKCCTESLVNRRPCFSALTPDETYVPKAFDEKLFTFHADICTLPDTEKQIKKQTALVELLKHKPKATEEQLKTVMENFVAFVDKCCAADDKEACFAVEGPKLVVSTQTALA

B1: trypsin: Proteomics grade trypsin protease, Sigma-Aldrich T6567 (protein, UniProt P00761 9-231, looked up)
Trypsin: IVGGYTCAANSIPYQVSLNSGSHFCGGSLINSQWVVSAAHCYKSRIQVRLGEHNIDVLEGNEQFINAAKIITHPNFNGNTLDNDIMLIKLSSPATLNSRVATVSLPRSCAAAGTECLISGWGNTKSSGSSYPSLLQCLKAPVLSDSSCKSSYPGQITGNMICVGFLEGGKDSCQGDSGGPVVCNGQLQGIVSWGYGCAQKNKPGVYTKVCNYVNWIQQTIAAN
Regarding B1, in the assay with BSA [1], the “apparent first order rate constant for tryptic digestion” value was 0.1466 min⁻¹. In addition, the “apparent first order rate constant” value with BSA [2] stood at 0.109 min⁻¹; with BSA [4] (sub-sampled reaction, gel fluorescence intensity, 0-128 min) it was 0.3136 min⁻¹. In the assay with BSA [3], the “digestion of BSA by SDS-PAGE” value was “complete digestion”. The “time for digestion to reach completion” value with BSA [4] (SDS-PAGE, bicine and carbonate (NH4HCO3) digestion buffers) was 0.5 to 1 h.
